In publication PMC8497992, “Structural and functional characterization explains loss of dNTPase activity of the cancer-specific R366C/H mutant SAMHD1 proteins”:

Key:
Assay in all cases: fluorescence polarization; 50 mM Tris-HCl pH 8.0, 50 mM KCl, 1 mM EDTA; 50 nM labeled oligonucleotide; temperature not stated
Conditions in all cases: protein: recombinant; chain copies: 2; label: 5'-6-carboxyfluorescein; single strand
SAMHD1 HD domain R366C = SAMHD1 HD domain R366C (UniProt Q9Y3Z3 114-626, R366C)
SAMHD1 HD domain R366H = SAMHD1 HD domain R366H (UniProt Q9Y3Z3 114-626, R366H)
SAMHD1 HD domain WT = SAMHD1 HD domain WT (UniProt Q9Y3Z3 114-626)
SAMHD1 HD domain WT, sequence (Q9Y3Z3 114-626): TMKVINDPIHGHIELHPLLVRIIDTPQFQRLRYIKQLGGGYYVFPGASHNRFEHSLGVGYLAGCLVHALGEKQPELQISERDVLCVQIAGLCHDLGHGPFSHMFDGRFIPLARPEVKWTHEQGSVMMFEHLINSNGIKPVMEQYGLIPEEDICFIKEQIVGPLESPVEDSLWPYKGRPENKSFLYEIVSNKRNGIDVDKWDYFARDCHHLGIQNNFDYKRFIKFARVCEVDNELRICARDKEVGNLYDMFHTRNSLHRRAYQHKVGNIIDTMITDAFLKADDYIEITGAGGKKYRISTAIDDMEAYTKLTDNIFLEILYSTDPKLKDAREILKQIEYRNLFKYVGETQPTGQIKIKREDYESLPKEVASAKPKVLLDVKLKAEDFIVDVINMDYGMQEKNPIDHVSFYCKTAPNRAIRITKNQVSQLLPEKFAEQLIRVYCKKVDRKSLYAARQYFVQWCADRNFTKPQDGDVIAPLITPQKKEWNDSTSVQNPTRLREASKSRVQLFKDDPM

SAMHD1 HD domain R366C, sequence (Q9Y3Z3 114-626 R366C): as the sequence (Q9Y3Z3 114-626) above, with R253C counted along it
SAMHD1 HD domain R366H, sequence (Q9Y3Z3 114-626 R366H): as the sequence (Q9Y3Z3 114-626) above, with R253H counted along it

B1: 6FAM-deoxy(C*G*C*C*T) (ssDNA)
DNA: CGCCT
modifications: * between all nucleotides (probably phosphorothioate; not defined in the material)
**Q.** What does the source list for B1?
**A.** Kd (SAMHD1 HD domain R366C): 689 ± 39 nM; Kd (SAMHD1 HD domain R366H): 606 ± 46 nM; Kd (SAMHD1 HD domain WT): 147 ± 8.3 nM

B2: 6FAM-ribo(C*G*C*C*U) (ssRNA)
RNA: CGCCU
modifications: * between all nucleotides (probably phosphorothioate; not defined in the material)
**Q.** How did the Kd (SAMHD1 HD domain R366C) turn out when B2 was run?
**A.** Its Kd is 1450 ± 51 nM.

**Q.** And the Kd (SAMHD1 HD domain R366H)?
**A.** Its Kd is 1120 ± 42 nM.

**Q.** What about the Kd (SAMHD1 HD domain WT) of the same binder?
**A.** Its Kd is 154 ± 4.2 nM.
